Experimental findings from patent US20180036445A1 are described below.

Assay [1] concerns the target Fab/Mab (sample loaded in Example 3). As to the kind of experiment: difference of dynamic binding capacity, after SIP minus control without SIP.
Assay [2] has the same target. As to the kind of experiment: 10% breakthrough dynamic binding capacity, ligand on agarose column, residence time 6 min, no SIP.
Assay [3] has the same target. As to the kind of experiment: 10% breakthrough dynamic binding capacity, ligand on agarose column, after 24 h in 0.1 M peracetic acid.
Assay [4] shares this target. As to the kind of experiment: 10% breakthrough dynamic binding capacity, MabSelect column, residence time 6 min, no SIP.
For assay [5] the target is unchanged. As to the kind of experiment: 10% breakthrough dynamic binding capacity, MabSelect Xtra column, residence time 6 min, no SIP.
For assay [6] the target is unchanged. As to the kind of experiment: 10% breakthrough dynamic binding capacity, MabSelect Xtra column, after 24 h in 0.1 M peracetic acid.
Assay [7] has the same target. As to the kind of experiment: difference of dynamic binding capacity, after SIP minus control without SIP, MabSelect Xtra.
Assay [8] has the same target. As to the kind of experiment: difference of dynamic binding capacity, after SIP minus control without SIP, MabSelect.
For assay [9] the target is unchanged. As to the kind of experiment: 10% breakthrough dynamic binding capacity, MabSelect column, after 24 h in 0.1 M peracetic acid.
The target of assay [10] is Fab (sample of Example 4). As to the kind of experiment: static binding capacity in filter plate, after 24 h in 100 mM peracetic acid, 10 min incubation with Fab, relative to PBS control.
Assay [11] deals with Fab (sample of Example 4). As to the kind of experiment: static binding capacity in filter plate, after 4 h in 5% H2O2, 90 min incubation with Fab, relative to PBS control.
The target in assay [12] is Fab (sample of Example 4). As to the kind of experiment: static binding capacity in filter plate, after 24 h in 500 mM peracetic acid, 90 min incubation with Fab, relative to PBS control.
Assay [13] deals with Fab (sample of Example 4). As to the kind of experiment: static binding capacity in filter plate, after 24 h in 5% H2O2, 10 min incubation with Fab, relative to PBS control.
Assay [14] deals with Fab (sample of Example 4). As to the kind of experiment: static binding capacity in filter plate, after 4 h in 500 mM peracetic acid, 90 min incubation with Fab, relative to PBS control.
Assay [15] has as its target Fab (sample of Example 4). As to the kind of experiment: static binding capacity in filter plate, after 24 h in 500 mM peracetic acid, 10 min incubation with Fab, relative to PBS control.
Assay [16] has as its target Fab (sample of Example 4). As to the kind of experiment: static binding capacity in filter plate, after 4 h in 100 mM peracetic acid, 90 min incubation with Fab, relative to PBS control.
For assay [17], the target named is Fab (sample of Example 4). As to the kind of experiment: static binding capacity in filter plate, after 4 h in 100 mM peracetic acid, 10 min incubation with Fab, relative to PBS control.
The target of assay [18] is Fab/Mab (sample loaded in Example 3). As to the kind of experiment: 10% breakthrough dynamic binding capacity, ligand on agarose column, after 24 h in 0.1 M peracetic acid (ligand degraded by the treatment).

recombinant Protein L (rPrL), sequence (chain): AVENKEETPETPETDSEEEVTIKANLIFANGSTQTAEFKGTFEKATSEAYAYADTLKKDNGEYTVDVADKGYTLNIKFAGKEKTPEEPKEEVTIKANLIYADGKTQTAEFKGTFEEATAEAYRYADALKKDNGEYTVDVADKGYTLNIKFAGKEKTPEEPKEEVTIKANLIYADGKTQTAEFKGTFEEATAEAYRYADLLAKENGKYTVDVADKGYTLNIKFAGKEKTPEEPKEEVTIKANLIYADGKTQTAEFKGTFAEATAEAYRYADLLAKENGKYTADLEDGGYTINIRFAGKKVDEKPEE

For the substance “MabSelect SuRe LX ligand (multimer of Protein Z variant with substituted asparagines) (designed binder)”, the ΔDBC in assay [1] was determined as 0 g/L. The substance further gave a DBC control, no SIP in assay [2] of 63 g/L. In assay [3], this substance returned a DBC after SIP of 63 g/L.
For “MabSelect SuRe ligand (multimer of Protein Z variant with substituted asparagines) (designed binder)”, the ΔDBC in assay [1] was determined as 1 g/L. The substance also displayed a DBC control, no SIP in assay [2] of 50 g/L. Moreover, the DBC after SIP in assay [3] turned out to be 51 g/L.
For the substance “recombinant Protein A (rPrA) (from UniProt P38507 42-327)”, the DBC control, no SIP was determined as 52 g/L in assay [4] and 59 g/L in assay [5]. Moreover, the DBC after SIP in assay [6] turned out to be 60 g/L; in [9], 51 g/L. The figures for the ΔDBC in assay [7] and in assay [8] were 1 g/L and -1 g/L, respectively.
For the substance recombinant Protein L (rPrL), the ΔDBC in assay [1] was -1 g/L. Further, the Relative remaining SBC (%) in [10] amounted to 107%; in assay [11] it was 102%; in [12] it was 102%; in assay [13], 102%; in assay [14], 103%; in assay [15], 97%. The Relative remaining SBC (%) was found to be 101% in assay [16] and 109% in [17]. Also, the DBC control, no SIP in assay [2] was determined as 30 g/L. The same substance had a DBC after SIP in assay [3] of 29 g/L.
In turn, “single-chain camelid antibody against IgG kappa chains (KappaSelect ligand) (VHH)” yielded a ΔDBC in assay [1] of -20 g/L. The same substance had a DBC after SIP in assay [18] of 0 g/L. Also, the DBC control, no SIP in assay [2] came to 20 g/L.
